Measurements reported in the Immune Epitope Database (IEDB).
One block for each sequence: values may come before it.

Tests used:
HLA-A*02:03 [1] = assay: IEDB peptide-MHC binding, purified MHC/direct/fluorescence; filed as Kd, often an IC50 or EC50 that approximates it; ≥ and ≤ were set here for values at or beyond the usual limits of such assays
HLA-A*02:11 [2] = assay: as above
HLA-A*02:12 [3] = assay: as above
HLA-A*02:16 = assay: as above
HLA-A*02:19 [4] = assay: as above
HLA-A*03:01 [5] = assay: as above
HLA-A*23:01 = assay: as above; conditions: source organism: Influenza A virus (A/ferret/Maryland/P10-UMD/2008(H9N2))
HLA-A*24:03 [6] = assay: as above; conditions: source organism: Influenza A virus (A/ferret/Maryland/P10-UMD/2008(H9N2))
HLA-A*68:02 [7] = assay: as above
HLA-A*02:01 = assay: IEDB peptide-MHC binding, purified MHC/competitive/fluorescence; filed as Kd, often an IC50 or EC50 that approximates it; ≥ and ≤ were set here for values at or beyond the usual limits of such assays
HLA-A*26:01 = assay: as above
HLA-A*69:01 = assay: as above
HLA-B*15:01 = assay: as above
HLA-B*27:03 = assay: as above
HLA-B*39:01 = assay: as above
HLA-B*46:01 = assay: as above
HLA-B*51:01 [8] = assay: as above
HLA-B*57:01 = assay: as above
HLA-B*51:01 [9] = assay: IEDB peptide-MHC binding, purified MHC/direct/fluorescence; filed as Kd, often an IC50 or EC50 that approximates it; ≥ and ≤ were set here for values at or beyond the usual limits of such assays; conditions: source organism: human gammaherpesvirus 4
HLA-B*07:02 [10] = assay: IEDB peptide-MHC binding, purified MHC/competitive/fluorescence; filed as Kd, often an IC50 or EC50 that approximates it; ≥ and ≤ were set here for values at or beyond the usual limits of such assays
HLA-A*02:03 [11] = assay: as above
HLA-A*02:11 [12] = assay: as above
HLA-A*02:12 [13] = assay: as above
HLA-A*02:19 [14] = assay: as above
HLA-A*03:01 [15] = assay: as above
HLA-A*24:03 [16] = assay: as above
HLA-A*29:02 = assay: as above
HLA-B*18:01 = assay: as above
HLA-C*06:02 = assay: IEDB peptide-MHC binding, purified MHC/direct/fluorescence; filed as Kd, often an IC50 or EC50 that approximates it; ≥ and ≤ were set here for values at or beyond the usual limits of such assays
HLA-B*07:02 [17] = assay: as above; conditions: source organism: Sudan ebolavirus - Maleo (1979)
HLA-B*15:17 = assay: IEDB peptide-MHC binding, purified MHC/competitive/fluorescence; filed as Kd, often an IC50 or EC50 that approximates it; ≥ and ≤ were set here for values at or beyond the usual limits of such assays; conditions: source organism: Zaire ebolavirus
HLA-B*27:05 = assay: as above; conditions: source organism: Influenza A virus (A/swine/Hong Kong/81/1978(H3N2))
HLA-C*03:03 = assay: IEDB peptide-MHC binding, purified MHC/direct/fluorescence; filed as Kd, often an IC50 or EC50 that approximates it; ≥ and ≤ were set here for values at or beyond the usual limits of such assays; conditions: source organism: Vaccinia virus WR
HLA-A*02:02 = assay: IEDB peptide-MHC binding, purified MHC/competitive/radioactivity; filed as Kd, often an IC50 or EC50 that approximates it; ≥ and ≤ were set here for values at or beyond the usual limits of such assays; conditions: source organism: Vaccinia virus WR
HLA-A*02:03 [18] = assay: as above; conditions: source organism: Vaccinia virus WR
HLA-A*02:06 = assay: as above; conditions: source organism: Vaccinia virus WR
HLA-A*68:02 [19] = assay: as above; conditions: source organism: Vaccinia virus WR
HLA-A*11:01 = assay: IEDB peptide-MHC binding, purified MHC/competitive/fluorescence; filed as Kd, often an IC50 or EC50 that approximates it; ≥ and ≤ were set here for values at or beyond the usual limits of such assays; conditions: source organism: Influenza A virus (A/swine/Scotland/410440/94(H1N2))
[20] = source organism: Influenza A virus (A/ferret/Maryland/P10-UMD/2008(H9N2))
[21] = source organism: Influenza A virus (A/Victoria/1968(H3N2))
[22] = source organism: Yersinia pestis Antiqua
[23] = source organism: Zaire ebolavirus
[24] = source organism: Escherichia coli str. K-12 substr. MG1655
[25] = source organism: Vibrio cholerae 2740-80

Sequence: NMDKAVKLY
Kd (HLA-A*02:03 [1]; [20]): ≥ 20 µM
Kd (HLA-A*02:11 [2]; [20]): ≥ 20 µM
Kd (HLA-A*02:12 [3]; [20]): ≥ 20 µM
Kd (HLA-A*02:16; [20]): ≥ 20 µM
Kd (HLA-A*02:19 [4]; [20]): ≥ 20 µM
Kd (HLA-A*03:01 [5]; [20]): ≥ 20 µM
Kd (HLA-A*23:01): ≥ 20 µM
Kd (HLA-A*24:03 [6]): ≥ 20 µM
Kd (HLA-A*68:02 [7]; [20]): ≥ 20 µM
Kd (HLA-A*02:01; [21]): ≥ 20 µM
Kd (HLA-A*26:01; [21]): ≥ 20 µM
Kd (HLA-A*69:01; [21]): ≥ 20 µM
Kd (HLA-B*15:01; [21]): ≥ 20 µM
Kd (HLA-B*27:03; [21]): ≥ 20 µM
Kd (HLA-B*39:01; [21]): ≥ 20 µM
Kd (HLA-B*46:01; [21]): ≥ 20 µM
Kd (HLA-B*51:01 [8]; [21]): ≥ 20 µM
Kd (HLA-B*57:01; [21]): ≥ 20 µM

Sequence: HPVGEADYFEY
Kd (HLA-B*51:01 [9]): ≥ 20 µM
Kd (HLA-B*07:02 [10]; source organism: Human herpesvirus 4 strain B95-8): ≥ 20 µM

Sequence: PLTNQRYRV
Kd (HLA-A*02:01; [22]): ≥ 20 µM
Kd (HLA-A*02:03 [11]; [22]): ≥ 20 µM
Kd (HLA-A*02:11 [12]; [22]): ≥ 20 µM
Kd (HLA-A*02:12 [13]; [22]): ≥ 20 µM
Kd (HLA-A*02:19 [14]; [22]): 0.797 µM
Kd (HLA-A*03:01 [15]; [22]): ≥ 20 µM
Kd (HLA-A*24:03 [16]; [22]): ≥ 20 µM
Kd (HLA-A*26:01; [22]): ≥ 20 µM
Kd (HLA-A*29:02; [22]): ≥ 20 µM
Kd (HLA-B*15:01; [22]): ≥ 20 µM
Kd (HLA-B*18:01; [22]): ≥ 20 µM
Kd (HLA-B*27:03; [22]): ≥ 20 µM
Kd (HLA-B*39:01; [22]): ≥ 20 µM
Kd (HLA-B*46:01; [22]): ≥ 20 µM
Kd (HLA-B*51:01 [8]; [22]): ≥ 20 µM
Kd (HLA-B*57:01; [22]): ≥ 20 µM

Sequence: YRTATLRTL
Kd (HLA-C*06:02; source organism: human gammaherpesvirus 4): 0.009 µM

Sequence: TPSGKRLQI
Kd (HLA-A*02:03 [1]; [23]): ≥ 20 µM
Kd (HLA-A*02:11 [2]; [23]): ≥ 20 µM
Kd (HLA-A*02:12 [3]; [23]): ≥ 20 µM
Kd (HLA-A*02:16; [23]): ≥ 20 µM
Kd (HLA-A*02:19 [4]; [23]): ≥ 20 µM
Kd (HLA-A*03:01 [5]; [23]): ≥ 20 µM
Kd (HLA-A*68:02 [7]; [23]): ≥ 20 µM
Kd (HLA-B*07:02 [17]): 0.0356 µM
Kd (HLA-A*02:01; [23]): ≥ 20 µM
Kd (HLA-A*26:01; [23]): ≥ 20 µM
Kd (HLA-A*69:01; [23]): ≥ 20 µM
Kd (HLA-B*15:01; [23]): ≥ 20 µM
Kd (HLA-B*15:17): ≥ 20 µM
Kd (HLA-B*18:01; [23]): ≥ 20 µM
Kd (HLA-B*27:03; [23]): ≥ 20 µM
Kd (HLA-B*39:01; [23]): ≥ 20 µM
Kd (HLA-B*46:01; [23]): ≥ 20 µM
Kd (HLA-B*51:01 [8]; [23]): ≥ 20 µM
Kd (HLA-B*57:01; [23]): ≥ 20 µM

Sequence: GRIQDLEKY
Kd (HLA-B*27:05): 0.112 µM

Kd (HLA-B*07:02 [10]; [24]): 0.868 µM
Kd (HLA-B*51:01 [8]; [24]): ≥ 20 µM
Sequence: APTADVAKI

Sequence: YIYGIPLSL
Kd (HLA-C*03:03): ≤ 0.001 µM
Kd (HLA-A*02:02): 0.46 µM
Kd (HLA-A*02:03 [18]): 13.1 µM
Kd (HLA-A*02:06): 11.5 µM
Kd (HLA-A*68:02 [19]): 1.87 µM

Sequence: YEPEMQAQV
Kd (HLA-A*02:01; [25]): ≥ 20 µM
Kd (HLA-A*02:03 [11]; [25]): ≥ 20 µM
Kd (HLA-A*02:11 [12]; [25]): ≥ 20 µM
Kd (HLA-A*02:12 [13]; [25]): ≥ 20 µM
Kd (HLA-A*02:19 [14]; [25]): 0.845 µM
Kd (HLA-A*03:01 [15]; [25]): ≥ 20 µM
Kd (HLA-A*24:03 [16]; [25]): ≥ 20 µM
Kd (HLA-A*26:01; [25]): ≥ 20 µM
Kd (HLA-A*29:02; [25]): ≥ 20 µM
Kd (HLA-B*15:01; [25]): ≥ 20 µM
Kd (HLA-B*18:01; [25]): ≥ 20 µM
Kd (HLA-B*27:03; [25]): ≥ 20 µM
Kd (HLA-B*39:01; [25]): ≥ 20 µM
Kd (HLA-B*46:01; [25]): ≥ 20 µM
Kd (HLA-B*51:01 [8]; [25]): ≥ 20 µM
Kd (HLA-B*57:01; [25]): ≥ 20 µM

Sequence: KVYKTYFEK
Kd (HLA-A*11:01): 0.0047 µM

Sequence: RARLWPRSM
Kd (HLA-C*06:02; source organism: Mycobacterium tuberculosis variant bovis BCG str. Pasteur 1173P2): 0.701 µM
